Changes are numbered by the printed parent chain. Names and notes keep the numbering of the source.
B1: Psp26ST(15-501)-His6: recombinant Photobacterium sp. JH-ISH-224 α2-6-sialyltransferase, residues 15-501, C-terminal His6, wild-type; SEQ ID NO: 23 (protein)
chain: CNNSEENTQSIIKNDINKTIIDEEYVNLEPINQSNISFTKHSWVQTCGTQQLLTEQNKESISLSVVAPRLDDDEKYCFDFNGVSNKGEKYITKVTLNVVAPSLEVYVDHASLPTLQQLMDIIKSEEENPTAQRYIAWGRIVPTDEQMKELNITSFALINNHTPADLVQEIVKQAQTKHRLNVKLSSNTAHSFDNLVPILKELNSFNNVTVTNIDLYDDGSAEYVNLYNWRDTLNKTDNLKIGKDYLEDVINGINEDTSNTGTSSVYNWQKLYPANYHFLRKDYLTLEPSLHELRDYIGDSLKQMQWDGFKKFNSKQQELFLSIVNFDKQKLQNEYNSSNLPNFVFTGTTVWAGNHEREYYAKQQINVINNAINESSPHYLGNSYDLFFKGHPGGGIINTLIMQNYPSMVDIPSKISFEVLMMTDMLPDAVAGIASSLYFTIPAEKIKFIVFTSTETITDRETALRSPLVQVMIKLGIVKEENVLFWA
modifications: C-terminal His6; Synthetic Psp26ST(15-501) WILD TYPE
B2: A366G: Photobacterium sp. JH-ISH-224 α2-6-sialyltransferase residues 15-501, A366G point mutation, C-terminal His6; SEQ ID NO: 2 (protein)
chain: B1 chain with A352G
modifications: C-terminal His6; Synthetic Psp26ST(15-501) A366G

Experiments:
[1] = Kinetics of CMP-Neu5Ac donor hydrolysis activity (capillary electrophoresis); type: biochemical
Experimental: Procedure for Kinetic Analysis of Donor Hydrolysis by His6-Pd2,6ST(16-497), Psp26ST(15-501)-His6 and its A235D and A366G Mutants
The kinetics study for the donor hydrolysis activity of His6-Pd2,6ST(16-497) was carried out at 37° C. for 20 min in Tris-HCl buffer (200 mM, pH 8.0). The kinetics study for the donor hydrolysis activities of Psp26ST(15-501)-His6 and its A235D mutant was carried out at 20° C. for 10 min in Tris-HCl buffer (200 mM, pH 8.0). All reactions were performed in duplicate in a total volume of 10 μL containing varied concentrations of CMP-Neu5Ac (10, 20, 40, 60, 80 and 100 mM) and the enzyme (6 μM). Reactions were stopped by adding 10 μL of ethanol and then centrifuged. The supernatants were analyzed by a P/ACETM capillary electrophoresis (CE) system equipped with a photodiode array (PDA) detector (Beckman Coulter, Inc., Fullerton, Calif.). CE conditions were as follows: 75 μm i.d. capillary, 25 KV/80μÅ, 5 s vacuum injections, monitored at 200 nm and 254 nm, the running buffer used was sodium tetraborate (25 mM, pH 9.4). Apparent kinetic parameters were obtained by fitting the experimental data (the average values of duplicate assay results) into the Michaelis-Menten equation using Grafit 5.0.

[2] = Sialylation assay with periodic addition of CMP-Neu5Ac; type: biochemical
Experimental: Two reactions were set up at 20° C. in MES buffer (200 mM, pH 5.0) containing Psp2,6ST(15-501)-His6 (6.0 μM), CMP-Neu5Ac (1 mM), and GalNAcα2AA (1 mM) in a total volume of 50 μL. One of the reactions was used as a control and was incubated for 4 h. The other was incubated for 1 h, 2 equivalents of CMP-Neu5Ac was then added. The same dose was added every hour for up to 4 h reaction duration. Aliquots (2 μL each) were withdrawn and the reactions were stopped by adding 10 μL of cold ethanol followed by centrifugation. The samples were diluted and kept on ice until aliquots of 8 μL were injected and analyzed by a Shimadzu LC-6AD system equipped with a membrane on-line degasser, a temperature control unit, and a fluorescence detector (Shimadzu RF-10AXL). A reverse-phase Premier C18 column (250×4.6 mm i.e., 5 μm particle size, Shimadzu) protected with a C18 guard column cartridge was used. The mobile phase was 25% acetonitrile in water. The 2-aminobenzoic acid (2AA)-labeled fluorescent acceptor and the product formed were detected with excitation at 315 nm and emission at 400 nm.

[3] = earlier reports (Ding 2011; Sun 2008); cited from earlier work
[4] = Apparent sialyltransferase kinetics, GalNAcα2AA as acceptor; type: biochemical
Experimental: (§1) Reactions were carried out in duplicate at 20° C. for 20 minutes in a total volume of 10 μL in a proper buffer at the optimal pH according to the pH profile of the wild-type enzyme (see, Ding, 2011, supra). When LacβMU was used as an acceptor, the conditions were: Tris-HCl buffer (200 mM, pH 8.0), enzyme (0.3 μM), varied concentrations of LacβMU (0.1, 0.25, 0.4, 1.0, 2.0, 4.0, and 6.0 mM) with a fixed concentration of CMP-Neu5Ac (1.0 mM) or varied concentrations of CMP-Neu5Ac (0.1, 0.25, 0.4, 1.0, 2.0, 4.0, and 6.0 mM) with a fixed concentration of LacβMU (1.0 mM). When GalNAcα2AA was used as an acceptor, the conditions were: NaOAc-HOAc buffer (200 mM, pH 5.0), enzyme (6 μM), varied concentrations of GalNAcα2AA (0.5, 0.8, 1.0, 2.0, 4.0, 8.0, and 10.0 mM) and a fixed concentration of CMP-Neu5Ac (4.0 mM) or varied concentrations of CMP-Neu5Ac (0.5, 1.0, 2.0, 4.0, 5.0, 8.0, and 10.0 mM) with a fixed concentration of GalNAcα2AA (1.0 mM). When GalNAcαSer was used as an acceptor, the conditions were: Tris-HCl buffer (200 mM, pH 8.0), enzyme (0.6 μM), varied concentrations of GalNAcαSer (0.1, 0.25, 0.5, 1.0, 2.0, 4.0, 8.0, and 10.0 mM) and a fixed concentration of CMP-Neu5Ac (2.0 mM). […]

[5] = Apparent sialyltransferase kinetics, GalNAcαSer as acceptor; type: biochemical
Experimental: as §1

[6] = Sialyltransferase activity assays, statements not tied to one acceptor (LacβMU, GalNAcα2AA, GalNAcαSer, GalNAcαThr); type: biochemical; conditions: α-linked N-acetyl galactosaminides, especially GalNAcα2AA or GalNAcαThr, as acceptor
Experimental: When LacβMU was used as an acceptor, the assay was performed in duplicate in 10 μL of Tris-HCl buffer (100 mM, pH 8.0) containing CMP-Neu5Ac (1 mM), LacβMU (1 mM), MgCl2 (20 mM), wild-type Psp2,6ST(15-501)-His6 or its mutant (0.3 μM). When an α-GalNAc-terminated acceptor was used, the assay was performed in duplicate in 10 μL of Tris-HCl buffer (100 mM, pH 8.0 for GalNAcαSer/Thr) or NaOAc-HOAc (100 mM, pH 5.0 for GalNAcα2AA) containing CMP-Neu5Ac (1.5 mM), the acceptor (1 mM), MgCl2 (20 mM), wild-type Psp2,6ST(15-501)-His6 or its mutant (3.0 μM). Reactions were allowed to proceed at 20° C. for 20 min and stopped by adding 10 μL of cold ethanol. The analysis of sialylated product conversion was performed using the HPLC system as described above for sialyltransferase activity assay. The 4-methylumbelliferone (MU)-labeled fluorescent acceptor and the product formed were detected with excitation at 325 nm and emission at 372 nm. The 2-aminobenzoic acid (2AA)-labeled fluorescent acceptors and the products formed were detected with excitation at 315 nm and emission at 400 nm. The 9-fluorenylmethylcarbamate (Fmoc)-labeled fluorescent acceptors and the products formed were detected with excitation at 262 nm and emission at 313 nm.

Molecule | CMP-Neu5Ac hydrolysis efficiency relative to sialyltransferase activity (more efficient) ([1]; versus kcat/Km with GalNAcα2AA as acceptor) | CMP-Neu5Ac hydrolysis efficiency relative to sialyltransferase activity (lower) ([1]; versus kcat/Km with LacβMU as acceptor) | sialylation yield ([2]; after an additional two equivalents of CMP-Neu5Ac, in 15 min) | sialylation yield ([2]; after the fourth dose (2 equivalents) of CMP-Neu5Ac) | sialylation yield ([2]; after the third dose (2 equivalents) of CMP-Neu5Ac) | sialylated product Neu5Acα2-6GalNAcα2AA formed ([2]; one equivalent of CMP-Neu5Ac, MES pH 5.0, 20° C., enzyme 6.0 μM, GalNAcα2AA 1 mM) | expression level of soluble protein [3] | catalytic efficiency (kcat/Km) higher than the wild-type enzyme [4] | catalytic efficiency (kcat/Km) higher than the wild-type enzyme [5] | sialyltransferase activity compared to wild-type [6]
B1 | about 14 fold | 13 fold | 17% | 33% | 25% | 7.3% | 25 mg/L |  |  | 
B2 |  |  |  |  |  |  |  | 1.3 fold | 1.2 fold | improved sialyltransferase activity
